The text below walks through data of patent US20240043559A1 (SHANGHAI HENLIUS BIOTECH, published 2024).

Assay [1] concerns the target recombinant human GPC3 protein (human) (UniProt P51654). The assay can be described thus: ELISA on plate-coated human GPC3. A general note: ELISA stands for enzyme-linked immunosorbent assay.
In assay [2] the target is human GPC3 expressed endogenously on hepatoma cells (HepG2, Hep3B) (human) (UniProt P51654). Briefly: flow cytometry on HepG2 cells (endogenous GPC3). On the technique in general: In flow cytometry, cells or beads pass a laser one at a time.
For assay [3] the target is unchanged. The assay can be described thus: flow cytometry on Hep3B cells (endogenous GPC3).
Assay [4] addresses T1, human GPC3 expressed endogenously on hepatoma cells (HepG2, Hep3B) (human, UniProt P51654 25-554).
T1 construct: also called GPC3 on HepG2; GPC3 on Hep3B
The assay can be described thus: flow cytometry on HepG2 cells (endogenous GPC3).

Chain of human GPC3 expressed endogenously on hepatoma cells (HepG2, Hep3B) (human) (P51654 other isoform, or with tags, fused parts or gaps limits assumed, form in doubt): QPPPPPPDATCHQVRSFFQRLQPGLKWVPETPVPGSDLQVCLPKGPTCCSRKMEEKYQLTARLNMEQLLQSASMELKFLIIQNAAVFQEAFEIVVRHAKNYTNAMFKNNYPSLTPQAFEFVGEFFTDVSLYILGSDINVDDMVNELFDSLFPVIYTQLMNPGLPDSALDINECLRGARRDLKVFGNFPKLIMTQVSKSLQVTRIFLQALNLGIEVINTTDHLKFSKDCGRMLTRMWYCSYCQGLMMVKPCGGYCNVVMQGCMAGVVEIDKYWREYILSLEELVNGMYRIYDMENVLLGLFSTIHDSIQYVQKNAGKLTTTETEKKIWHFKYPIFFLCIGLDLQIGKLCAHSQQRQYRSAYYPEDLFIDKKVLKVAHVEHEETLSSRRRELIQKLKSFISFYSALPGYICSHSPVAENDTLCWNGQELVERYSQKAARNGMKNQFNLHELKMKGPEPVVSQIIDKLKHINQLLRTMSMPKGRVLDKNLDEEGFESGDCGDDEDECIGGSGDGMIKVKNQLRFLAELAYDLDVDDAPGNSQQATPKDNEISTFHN
Chain of recombinant human GPC3 protein (human) (P51654 other isoform, or with tags, fused parts or gaps limits assumed, form in doubt): as above
T1 sequence (P51654 other isoform, or with tags, fused parts or gaps limits assumed, form in doubt): as above

Broadly, the EC50 (read off the curve) is the concentration needed to bring the measured effect to its halfway point. On to HN3 VHH-Fc (Fc fusion), for which the EC50 (read off the curve) in assay [1] came out at 0.02 µg/mL; in assay [2], 2 nM; in assay [3], 2 nM.

B1: 1B01 llama-human chimeric bivalent VHH-Fc (Fc fusion)
chain: QVQLQESGGGLVQAGGSLRLSCAAVGLPFSNYAMGWFRQAPGEEREFVSAVSANGGNEYYADSVKDRFTISRDNAKNTVYLRMLSLKLEDTAIYYCATVRRRGGTFTVGSYRGQGTQVTVSS
notes: also called Clone 1B01; 1B01 llama VHH; not shown: human IgG1 Fc fused to the C-terminal of the VHH
Consider B1, for which the “EC50 (read off the curve)” value in assay [4] is about 0.3 nM.
